From patent publication US20190218292A1

Experiments:
[1] = target: hCD32aR (human) (UniProt P12318); test: ELISA, coated hCD32aR, IgG aggregated with anti-CK F(ab')2-HRP
[2] = target: cynomolgus monkey PD1 antigen (cynomolgus monkey) (UniProt B0LAJ3); test: ELISA, coated cynomolgus PD1
[3] = target: hCD32aH (human) (UniProt P12318); test: ELISA, coated hCD32aH, 0.5 µg/ml
[4] = target: murine PD1 antigen (murine) (UniProt Q02242); test: ELISA, coated murine PD1
[5] = target: hCD32b (human) (UniProt P31994); test: ELISA, coated hCD32b, IgG aggregated with anti-CK F(ab')2-HRP
Sequence of hCD32b (human) (P31994 46-217): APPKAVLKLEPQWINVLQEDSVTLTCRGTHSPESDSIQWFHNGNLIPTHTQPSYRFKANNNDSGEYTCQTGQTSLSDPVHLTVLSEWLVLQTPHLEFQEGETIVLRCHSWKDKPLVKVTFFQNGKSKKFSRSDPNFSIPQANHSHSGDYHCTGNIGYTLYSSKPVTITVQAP

[6] = target: hCD32aH (human) (UniProt P12318); test: ELISA, coated hCD32aH, IgG aggregated with anti-CK F(ab')2-HRP
[7] = target: human PD1 antigen (recombinant protein) (human) (UniProt Q15116); test: ELISA, coated human PD1, 0.2 µg/ml
Sequence of human PD1 antigen (recombinant protein) (human) (Q15116 25-167 limits assumed): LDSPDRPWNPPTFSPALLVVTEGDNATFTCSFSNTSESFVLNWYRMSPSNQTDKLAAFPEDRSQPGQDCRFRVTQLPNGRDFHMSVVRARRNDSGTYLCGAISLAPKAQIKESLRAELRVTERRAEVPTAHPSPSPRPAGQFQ

[8] = target: hCD32b (human) (UniProt P31994); test: ELISA, coated hCD32b, 0.5 µg/ml
[9] = target: human PD1 antigen (recombinant protein) (human) (UniProt Q15116); test: ELISA, coated human PD1
[10] = target: hCD16aV (human) (UniProt P08637); test: ELISA, coated hCD16aV, 0.5 µg/ml
[11] = target: hCD16aV (human) (UniProt P08637); test: ELISA, coated hCD16aV, IgG aggregated with anti-CK F(ab')2-HRP
[12] = target: FcRn receptor (recombinant protein human FcRnα and β2-microglobulin) (human) (UniProt P55899); test: ELISA at pH 6, coated FcRn
Sequence of FcRn receptor (recombinant protein human FcRnα and β2-microglobulin) (human) (P55899 24-297 limits assumed, chain 1 of 2): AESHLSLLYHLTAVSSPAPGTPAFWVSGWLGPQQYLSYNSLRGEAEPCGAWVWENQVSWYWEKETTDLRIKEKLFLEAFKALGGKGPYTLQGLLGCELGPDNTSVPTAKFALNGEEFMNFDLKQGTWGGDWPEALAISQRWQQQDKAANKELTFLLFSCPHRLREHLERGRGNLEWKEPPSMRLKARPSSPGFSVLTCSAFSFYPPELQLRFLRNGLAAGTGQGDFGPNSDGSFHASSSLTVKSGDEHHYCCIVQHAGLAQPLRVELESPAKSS
Sequence of FcRn receptor (recombinant protein human FcRnα and β2-microglobulin) (human) (P61769 21-119 limits assumed, chain 2 of 2, further chain): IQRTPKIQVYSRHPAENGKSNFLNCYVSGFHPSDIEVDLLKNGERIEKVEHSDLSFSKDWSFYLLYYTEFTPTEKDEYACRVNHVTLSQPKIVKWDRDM

[13] = target: FcRn receptor (recombinant protein human FcRnα and β2-microglobulin) (human) (UniProt P55899); test: ELISA at pH 6, coated FcRn, 10 µg/ml
[14] = target: hCD32aR (human) (UniProt P12318); test: ELISA, coated hCD32aR, 0.5 µg/ml
[15] = target: human CD64 receptor (hFcγRI) (human) (UniProt P12314); test: ELISA, coated hCD64, 0.5 µg/ml
Sequence of human CD64 receptor (hFcγRI) (human) (P12314 16-288 limits assumed): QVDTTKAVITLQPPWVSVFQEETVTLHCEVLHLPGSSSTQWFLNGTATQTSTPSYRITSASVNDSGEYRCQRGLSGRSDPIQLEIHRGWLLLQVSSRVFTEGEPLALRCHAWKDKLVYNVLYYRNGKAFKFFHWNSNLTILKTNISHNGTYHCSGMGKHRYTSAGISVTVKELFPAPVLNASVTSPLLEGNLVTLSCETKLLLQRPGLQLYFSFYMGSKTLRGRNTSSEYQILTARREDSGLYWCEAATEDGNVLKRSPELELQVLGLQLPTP

[16] = target: human CD64 receptor (hFcγRI) (human) (UniProt P12314); test: ELISA, coated hCD64
[17] = target: cynomolgus monkey PD1 antigen (cynomolgus monkey) (UniProt B0LAJ3); test: ELISA, coated cynomolgus PD1, 0.2 µg/ml

Sequence of hCD32aH (human) (P12318 36-218): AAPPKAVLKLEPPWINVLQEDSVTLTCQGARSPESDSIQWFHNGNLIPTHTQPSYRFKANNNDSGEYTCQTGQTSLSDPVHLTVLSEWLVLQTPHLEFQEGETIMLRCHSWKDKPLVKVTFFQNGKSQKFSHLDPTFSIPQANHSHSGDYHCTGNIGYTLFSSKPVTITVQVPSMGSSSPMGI
Sequence of cynomolgus monkey PD1 antigen (cynomolgus monkey) (B0LAJ3 entry or part of it limits assumed, form in doubt): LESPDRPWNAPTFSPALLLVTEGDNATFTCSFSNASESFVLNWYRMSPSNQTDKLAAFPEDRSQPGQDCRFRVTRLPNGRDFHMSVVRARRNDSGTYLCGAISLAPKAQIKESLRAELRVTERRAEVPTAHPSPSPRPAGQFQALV
Sequence of murine PD1 antigen (murine) (Q02242 25-167 limits assumed): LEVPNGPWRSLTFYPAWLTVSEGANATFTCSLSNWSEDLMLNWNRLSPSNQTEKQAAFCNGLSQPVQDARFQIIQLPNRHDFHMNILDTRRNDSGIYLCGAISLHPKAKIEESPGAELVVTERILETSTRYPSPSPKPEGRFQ

Substance	OD 450 nm at 0.5 µg/ml [1]	OD 450 nm at 0.2 µg/ml [2]	OD Ratio variant/IgG1 WT [3]	OD 450 nm at 0.2 µg/ml [4]	OD 450 nm at 0.5 µg/ml [5]	OD 450 nm at 0.5 µg/ml [6]	OD Ratio variant/IgG1 WT [7]	OD Ratio variant/IgG1 WT [8]	OD 450 nm at 0.2 µg/ml [9]	OD Ratio variant/IgG1 WT [10]	OD 450 nm at 0.5 µg/ml [11]	OD 450 nm at 10 µg/ml [12]	OD Ratio variant/IgG1 WT [13]	OD Ratio variant/IgG1 WT [14]	OD Ratio variant/IgG1 WT [15]	OD 450 nm at 0.5 µg/ml [16]	OD Ratio variant/IgG1 WT [17]
IgG1_C6A_74 nivolumab (V259I/N315D/N434Y) (antibody)	2.43 OD 450 nm	2.28 OD 450 nm	1.02	0.235 OD 450 nm	0.481 OD 450 nm	1.65 OD 450 nm	1.1	0.24	2.87 OD 450 nm	1.31	1.07 OD 450 nm	2.37 OD 450 nm	7.47	0.65	0.98	1.24 OD 450 nm	0.95
IgG1_C6A_74Del294 nivolumab (V259I/Del294/N315D/N434Y) (antibody)	0.242 OD 450 nm	2.29 OD 450 nm	0.05	0.31 OD 450 nm	0.132 OD 450 nm	0.0798 OD 450 nm	1.06	0.06	2.77 OD 450 nm	0.15	0.121 OD 450 nm	2.3 OD 450 nm	7.27	0.06	0.05	0.0574 OD 450 nm	0.96
IgG1_WT nivolumab (from UniProt P01857 1-330) (antibody)												0.317 OD 450 nm				1.26 OD 450 nm	
IgG1_WT pembrolizumab (from UniProt P01857 1-330) (antibody)												0.379 OD 450 nm				0.777 OD 450 nm	
